These results are taken from publication PMC10612264, “A novel transcriptional repressor specifically regulates xylanase gene 1 in Trichoderma reesei”.

The target in data set [1] is T1, XTR1 DBD (Trichoderma reesei QM9414) (UniProt G0RH11).
T1 sequence: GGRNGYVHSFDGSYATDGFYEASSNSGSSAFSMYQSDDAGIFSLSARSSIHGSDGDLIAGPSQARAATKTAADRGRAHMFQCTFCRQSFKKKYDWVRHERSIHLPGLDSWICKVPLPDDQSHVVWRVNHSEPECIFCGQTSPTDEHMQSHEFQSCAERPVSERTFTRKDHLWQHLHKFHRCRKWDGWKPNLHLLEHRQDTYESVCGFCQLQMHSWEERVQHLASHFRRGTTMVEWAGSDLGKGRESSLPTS
The data set is described as follows: EMSA. The settings on record: EMSA: 10 mM Tris pH 7.5, 50 mM KCl, 1 mM DTT, 150 ng DNA, 20 C 30 min, 6% native PAGE at 4 C in 0.5x TBE, EtBr; footprinting: 180 ng DNA, 25 C 30 min. (In general: Mobility shift assays separate free from complexed probe on a gel.)

Data set [2] deals with T2, XYR1 DBD (Trichoderma reesei) (UniProt G0RLE8).
T2 sequence: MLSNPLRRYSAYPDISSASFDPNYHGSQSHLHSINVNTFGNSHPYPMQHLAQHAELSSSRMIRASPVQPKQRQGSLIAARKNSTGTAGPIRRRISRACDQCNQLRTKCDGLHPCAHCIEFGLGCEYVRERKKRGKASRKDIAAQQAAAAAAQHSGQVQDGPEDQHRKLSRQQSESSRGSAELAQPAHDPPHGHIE
The experiment in a line: EMSA. The settings on record: EMSA: 10 mM Tris pH 7.5, 50 mM KCl, 1 mM DTT, 150 ng DNA, 20 C 30 min, 6% native PAGE at 4 C in 0.5x TBE, EtBr; footprinting: 180 ng DNA, 25 C 30 min.

The target in data set [3] is T3, XTR1 DBD (Trichoderma reesei QM9414, UniProt G0RH11 285-535).
T3 sequence: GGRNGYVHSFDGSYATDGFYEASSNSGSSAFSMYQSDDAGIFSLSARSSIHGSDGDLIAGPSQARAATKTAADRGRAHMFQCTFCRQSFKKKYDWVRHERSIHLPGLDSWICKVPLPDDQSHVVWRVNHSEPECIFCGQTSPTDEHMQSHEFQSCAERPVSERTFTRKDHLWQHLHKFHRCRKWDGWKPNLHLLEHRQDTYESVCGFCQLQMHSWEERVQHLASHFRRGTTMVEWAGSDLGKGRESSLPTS
The experiment in a line: EMSA; EMSA: 10 mM Tris pH 7.5, 50 mM KCl, 1 mM DTT, 150 ng DNA, 20 C 30 min, 6% native PAGE at 4 C in 0.5x TBE, EtBr; footprinting: 180 ng DNA, 25 C 30 min. The settings on record: protein: recombinant; tags: His tag (pET22b NdeI/XhoI, Ni-NTA); label: none (EtBr stain).

Data set [4] has as its target T3, XTR1 DBD. The data set is described as follows: EMSA; binding increased vs wild type; EMSA: 10 mM Tris pH 7.5, 50 mM KCl, 1 mM DTT, 150 ng DNA, 20 C 30 min, 6% native PAGE at 4 C in 0.5x TBE, EtBr; footprinting: 180 ng DNA, 25 C 30 min. The settings on record: protein: recombinant; tags: His tag (pET22b NdeI/XhoI, Ni-NTA); label: none (EtBr stain).

On to “AACTAGGACCGGCTTGTGTCGATATTGCGGGTGGCGTTCAATCTATTCCGGCACTCCTATGCCGTTTGATCCGATACCTGGAGGGCGTGCTTTAGGCAAAATGCC (double strand) [Pxyn1 (-321 to -217)]”, for which the binding entry in data set [1] and in data set [2] was “binds” each time.
Take “AACTAGGACCGGCTTGTGTCGATATTGCGGGTGGCGTTCAATCTATTCCGGCACTCCTATGCCGTTTGATCCGATACCTGGAGGGCGTGCTTTAGGCAAAATGCCAAGCTTCGAGGATACTGTACGAGCCGCTTTCAACCTCACTTGATGATGTCTGAGTTTCATCAAGAGAATTGAAGTCAAAGCTCAAATCATGATGTGAAGAGGTTTTGAATGTGGAAGAATTCTGCATA (double strand) [Pxyn1 (-321 to -91)]”: in data set [1], the binding entry is “binds”.
Same read-out and setting: next, “AAGCTTCGAGGATACTGTACGAGCCGCTTTCAACCTCACTTGATGATGTCTGAGTTTCATCAAGAGAATTGAAGTCAAAGCTCAAATCATGATGTGAAGAGGTTTTGAATGTGGAAGAATTCTGCATA (double strand) [Pxyn1 (-217 to -91)]”: “no binding”.

B1: Pxyn1 (-321 to -217) GG2-3 to AA (dsDNA)
DNA 1: AACTAGGACCGGCTTGTGTCGATATTGCGGGTGGCGTTCAATCTATTCCGGCACTCCTATGCCGTTTGATCCGATACCTAAAGGGCGTGCTTTAGGCAAAATGCC
DNA 2: GGCATTTTGCCTAAAGCACGCCCTTTAGGTATCGGATCAAACGGCATAGGAGTGCCGGAATAGATTGAACGCCACCCGCAATATCGACACAAGCCGGTCCTAGTT
Consider B1, for which the binding result in data set [3] is listed as “binds”.

B2: Pxyn1 (-321 to -217) GGG5-7 to AAA (dsDNA)
DNA 1: AACTAGGACCGGCTTGTGTCGATATTGCGGGTGGCGTTCAATCTATTCCGGCACTCCTATGCCGTTTGATCCGATACCTGGAAAACGTGCTTTAGGCAAAATGCC
DNA 2: GGCATTTTGCCTAAAGCACGTTTTCCAGGTATCGGATCAAACGGCATAGGAGTGCCGGAATAGATTGAACGCCACCCGCAATATCGACACAAGCCGGTCCTAGTT
With B2, in data set [3], the binding result is recorded as “binds”.

B3: Pxyn1 (-321 to -217) 3' TTT to AAA (dsDNA)
DNA 1: AACTAGGACCGGCTTGTGTCGATATTGCGGGTGGCGTTCAATCTATTCCGGCACTCCTATGCCGTTTGATCCGATACCTGGAGGGCGTGCGGGAGGCAAAATGCC
DNA 2: GGCATTTTGCCTCCCGCACGCCCTCCAGGTATCGGATCAAACGGCATAGGAGTGCCGGAATAGATTGAACGCCACCCGCAATATCGACACAAGCCGGTCCTAGTT
With B3, the binding result in data set [4] is “binds”.

B4: Pxyn1 (-321 to -217) CGTGC8-12 to TTGTT (dsDNA)
DNA 1: AACTAGGACCGGCTTGTGTCGATATTGCGGGTGGCGTTCAATCTATTCCGGCACTCCTATGCCGTTTGATCCGATACCTGGAGGGTTGTTTTTAGGCAAAATGCC
DNA 2: GGCATTTTGCCTAAAAACAACCCTCCAGGTATCGGATCAAACGGCATAGGAGTGCCGGAATAGATTGAACGCCACCCGCAATATCGACACAAGCCGGTCCTAGTT
For B4, the binding result in data set [3] was “no binding”.
